IntAct's records for PubMed 35512704

B1: Speckle-type POZ protein (Homo sapiens), O43791 (parent)
chain: MSRVPSPPPPAEMSSGPVAESWCYTQIKVVKFSYMWTINNFSFCREEMGEVIKSSTFSSGANDKLKWCLRVNPKGLDEESKDYLSLYLLLVSCPKSEVRAKFKFSILNAKGEETKAMESQRAYRFVQGKDWGFKKFIRRDFLLDEANGLLPDDKLTLFCEVSVVQDSVNISGQNTMNMVKVPECRLADELGGLWENSRFTDCCLCVAGQEFQAHKAILAARSPVFSAMFEHEMEESKKNRVEINDVEPEVFKEMMCFIYTGKAPNLDKMADDLLAAADKYALERLKVMCEDALCSNLSVENAAEILILADLHSADQLKTQAVDFINYHASDVLETSGWKSMVVSHPHLVAEAYRSLASAQCPFLGPPRKRLKQS
partner: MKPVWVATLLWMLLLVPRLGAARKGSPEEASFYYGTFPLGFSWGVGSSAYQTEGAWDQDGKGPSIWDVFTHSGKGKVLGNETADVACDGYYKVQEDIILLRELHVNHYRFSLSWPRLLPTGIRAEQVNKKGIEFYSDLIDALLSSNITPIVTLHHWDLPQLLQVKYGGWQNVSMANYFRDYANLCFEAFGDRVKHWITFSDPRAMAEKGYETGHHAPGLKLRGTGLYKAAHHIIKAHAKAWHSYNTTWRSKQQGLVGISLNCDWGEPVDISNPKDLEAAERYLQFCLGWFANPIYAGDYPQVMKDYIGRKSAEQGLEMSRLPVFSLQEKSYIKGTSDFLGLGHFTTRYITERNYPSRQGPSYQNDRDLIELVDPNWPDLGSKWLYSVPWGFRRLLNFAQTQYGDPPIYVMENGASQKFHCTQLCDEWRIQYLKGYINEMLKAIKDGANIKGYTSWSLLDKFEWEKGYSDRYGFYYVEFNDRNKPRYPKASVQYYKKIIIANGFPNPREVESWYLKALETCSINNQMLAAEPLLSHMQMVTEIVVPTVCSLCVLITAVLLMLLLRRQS
B2: Speckle-type POZ protein (Homo sapiens), O43791 (parent)
chain: B1 chain
partner: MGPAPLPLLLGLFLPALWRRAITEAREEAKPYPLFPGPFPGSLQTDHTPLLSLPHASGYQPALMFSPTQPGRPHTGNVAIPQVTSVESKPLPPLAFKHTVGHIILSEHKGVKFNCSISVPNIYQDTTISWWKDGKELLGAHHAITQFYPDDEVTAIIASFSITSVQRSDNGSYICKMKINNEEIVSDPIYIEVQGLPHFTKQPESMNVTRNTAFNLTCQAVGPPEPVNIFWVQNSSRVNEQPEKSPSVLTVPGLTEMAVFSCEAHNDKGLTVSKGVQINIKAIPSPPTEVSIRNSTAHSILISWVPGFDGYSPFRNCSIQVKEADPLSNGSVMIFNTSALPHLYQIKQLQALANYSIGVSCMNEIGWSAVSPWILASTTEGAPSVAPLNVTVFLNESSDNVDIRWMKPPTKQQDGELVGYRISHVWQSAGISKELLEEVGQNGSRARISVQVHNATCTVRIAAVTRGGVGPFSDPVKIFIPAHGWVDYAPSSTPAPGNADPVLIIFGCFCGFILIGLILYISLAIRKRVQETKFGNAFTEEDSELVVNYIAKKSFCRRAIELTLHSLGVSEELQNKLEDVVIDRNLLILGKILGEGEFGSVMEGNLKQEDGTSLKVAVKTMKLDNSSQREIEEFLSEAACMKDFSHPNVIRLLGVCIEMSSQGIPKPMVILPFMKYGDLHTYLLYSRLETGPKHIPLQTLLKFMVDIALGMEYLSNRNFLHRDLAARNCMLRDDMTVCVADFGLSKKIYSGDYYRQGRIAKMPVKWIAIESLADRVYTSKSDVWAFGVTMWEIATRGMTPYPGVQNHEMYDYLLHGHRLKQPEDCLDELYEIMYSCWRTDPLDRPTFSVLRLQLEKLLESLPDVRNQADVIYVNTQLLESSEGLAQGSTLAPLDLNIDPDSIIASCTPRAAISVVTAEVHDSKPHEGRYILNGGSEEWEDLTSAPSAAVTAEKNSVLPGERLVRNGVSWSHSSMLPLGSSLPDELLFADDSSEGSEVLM
B3: Speckle-type POZ protein (Homo sapiens), O43791 (parent)
chain: B1 chain
partner: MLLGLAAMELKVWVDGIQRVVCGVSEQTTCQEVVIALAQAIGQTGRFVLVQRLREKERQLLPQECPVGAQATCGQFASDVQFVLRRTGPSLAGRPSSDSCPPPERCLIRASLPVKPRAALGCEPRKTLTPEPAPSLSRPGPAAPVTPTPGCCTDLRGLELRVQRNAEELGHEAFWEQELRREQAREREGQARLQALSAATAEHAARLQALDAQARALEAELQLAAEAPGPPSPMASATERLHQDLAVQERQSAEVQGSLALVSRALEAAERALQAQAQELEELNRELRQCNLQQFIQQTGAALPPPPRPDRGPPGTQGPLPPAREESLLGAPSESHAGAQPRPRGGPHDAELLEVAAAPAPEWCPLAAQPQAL
B4: Speckle-type POZ protein (Homo sapiens), O43791 (parent)
chain: B1 chain
partner: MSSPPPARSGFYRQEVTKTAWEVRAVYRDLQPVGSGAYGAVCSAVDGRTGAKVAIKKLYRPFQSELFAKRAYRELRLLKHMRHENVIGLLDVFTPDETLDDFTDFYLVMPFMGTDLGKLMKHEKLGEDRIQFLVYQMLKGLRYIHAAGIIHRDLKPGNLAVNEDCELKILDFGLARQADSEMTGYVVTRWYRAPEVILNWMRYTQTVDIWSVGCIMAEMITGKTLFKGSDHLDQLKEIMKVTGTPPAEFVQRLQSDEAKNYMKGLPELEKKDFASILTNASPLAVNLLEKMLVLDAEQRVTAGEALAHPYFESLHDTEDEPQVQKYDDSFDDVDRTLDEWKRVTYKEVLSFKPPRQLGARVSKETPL
B5: Speckle-type POZ protein (Homo sapiens), O43791 (parent)
chain: B1 chain
partner: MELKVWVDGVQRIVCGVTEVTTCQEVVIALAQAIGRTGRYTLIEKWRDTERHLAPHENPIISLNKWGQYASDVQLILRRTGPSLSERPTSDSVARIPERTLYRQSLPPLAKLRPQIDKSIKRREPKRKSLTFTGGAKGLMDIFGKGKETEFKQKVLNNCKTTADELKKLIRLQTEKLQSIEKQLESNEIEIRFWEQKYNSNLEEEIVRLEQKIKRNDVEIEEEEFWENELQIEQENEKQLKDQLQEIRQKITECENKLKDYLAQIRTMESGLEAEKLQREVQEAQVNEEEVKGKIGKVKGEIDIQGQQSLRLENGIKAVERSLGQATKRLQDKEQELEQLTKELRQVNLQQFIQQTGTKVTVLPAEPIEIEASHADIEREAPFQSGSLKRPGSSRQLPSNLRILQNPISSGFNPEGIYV
B6: Speckle-type POZ protein (Homo sapiens), O43791 (parent)
chain: B1 chain
partner: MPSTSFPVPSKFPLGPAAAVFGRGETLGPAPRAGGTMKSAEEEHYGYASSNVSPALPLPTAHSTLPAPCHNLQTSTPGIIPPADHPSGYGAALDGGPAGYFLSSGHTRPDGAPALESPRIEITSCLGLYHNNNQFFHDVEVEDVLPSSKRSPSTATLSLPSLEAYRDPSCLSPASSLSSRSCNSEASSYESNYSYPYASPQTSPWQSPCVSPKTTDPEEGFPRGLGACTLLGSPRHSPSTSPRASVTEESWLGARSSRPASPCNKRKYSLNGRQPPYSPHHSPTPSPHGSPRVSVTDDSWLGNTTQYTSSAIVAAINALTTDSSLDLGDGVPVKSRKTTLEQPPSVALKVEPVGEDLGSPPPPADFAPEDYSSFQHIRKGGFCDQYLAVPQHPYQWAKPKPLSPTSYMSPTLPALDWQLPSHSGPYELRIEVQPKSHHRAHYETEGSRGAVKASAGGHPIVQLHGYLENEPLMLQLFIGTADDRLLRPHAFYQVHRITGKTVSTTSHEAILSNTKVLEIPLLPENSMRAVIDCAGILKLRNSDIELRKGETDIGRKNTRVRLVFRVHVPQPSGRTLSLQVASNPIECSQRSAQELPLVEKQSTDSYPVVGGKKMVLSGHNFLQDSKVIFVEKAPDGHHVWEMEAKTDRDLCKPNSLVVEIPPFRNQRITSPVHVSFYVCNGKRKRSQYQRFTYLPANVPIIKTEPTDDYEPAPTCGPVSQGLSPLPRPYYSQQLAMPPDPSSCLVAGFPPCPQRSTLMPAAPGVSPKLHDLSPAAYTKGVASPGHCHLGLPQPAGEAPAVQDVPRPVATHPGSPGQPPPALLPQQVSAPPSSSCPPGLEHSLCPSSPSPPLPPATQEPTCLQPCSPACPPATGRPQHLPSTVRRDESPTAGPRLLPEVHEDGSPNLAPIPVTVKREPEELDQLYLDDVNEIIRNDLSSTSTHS
B7: Speckle-type POZ protein (Homo sapiens), O43791 (parent)
chain: B1 chain
partner: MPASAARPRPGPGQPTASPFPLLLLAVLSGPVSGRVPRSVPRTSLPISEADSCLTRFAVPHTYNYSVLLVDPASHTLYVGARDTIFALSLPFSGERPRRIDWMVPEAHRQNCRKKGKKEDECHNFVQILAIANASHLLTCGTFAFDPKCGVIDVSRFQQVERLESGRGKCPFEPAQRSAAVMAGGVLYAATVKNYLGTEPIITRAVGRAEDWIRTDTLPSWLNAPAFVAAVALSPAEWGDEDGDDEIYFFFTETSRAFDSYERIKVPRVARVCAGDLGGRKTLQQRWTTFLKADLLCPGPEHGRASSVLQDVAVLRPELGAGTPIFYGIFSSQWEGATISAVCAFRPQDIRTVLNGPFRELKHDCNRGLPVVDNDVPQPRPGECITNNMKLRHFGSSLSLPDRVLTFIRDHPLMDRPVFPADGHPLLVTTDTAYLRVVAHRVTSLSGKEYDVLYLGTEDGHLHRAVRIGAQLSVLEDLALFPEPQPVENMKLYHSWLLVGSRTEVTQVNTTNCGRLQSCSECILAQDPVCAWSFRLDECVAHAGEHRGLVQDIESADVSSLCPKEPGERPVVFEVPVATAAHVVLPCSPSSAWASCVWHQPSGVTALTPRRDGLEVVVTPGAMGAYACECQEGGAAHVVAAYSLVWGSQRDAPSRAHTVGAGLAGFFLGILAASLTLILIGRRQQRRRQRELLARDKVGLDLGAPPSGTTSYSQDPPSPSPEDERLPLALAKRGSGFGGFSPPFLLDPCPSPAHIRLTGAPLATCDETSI

Variants of: B1
Details: with lctl_human LCTL

Variant | effect of a mutation on the interaction
F133V | with no effect

Variants of: B1
Details: with lctl_human LCTL
Remark: another data set of the same source

Variant | effect of a mutation on the interaction
Y87C | with no effect

Variants of: B2
Details: with mertk_human MERTK

Variant | effect of a mutation on the interaction
F133V | with no effect

Variants of: B2
Details: with mertk_human MERTK
Remark: another data set of the same source

Variant | effect of a mutation on the interaction
F133L | with no effect

Variants of: B2
Details: with mertk_human MERTK
Remark: another data set of the same source

Variant | effect of a mutation on the interaction
Y87C | with no effect

Variants of: B2
Details: with mertk_human MERTK
Remark: another data set of the same source

Variant | effect of a mutation on the interaction
F102C | with no effect

Variants of: B3
Details: with rasf7_human RASSF7, Q02833

Variant | effect of a mutation on the interaction
Y87C | with no effect

Variants of: B3
Details: with rasf7_human RASSF7, Q02833
Remark: another data set of the same source

Variant | effect of a mutation on the interaction
F133L | with no effect

Variants of: B3
Details: with rasf7_human RASSF7, Q02833
Remark: another data set of the same source

Variant | effect of a mutation on the interaction
F133V | with no effect

Variants of: B3
Details: with rasf7_human RASSF7, Q02833
Remark: another data set of the same source

Variant | effect of a mutation on the interaction
F102C | with no effect

Variants of: B4
Details: with mk12_human MAPK12, P53778

Variant | effect of a mutation on the interaction
F102C | with no effect

Variants of: B4
Details: with mk12_human MAPK12, P53778
Remark: another data set of the same source

Variant | effect of a mutation on the interaction
F133V | with no effect

Variants of: B4
Details: with mk12_human MAPK12, P53778
Remark: another data set of the same source

Variant | effect of a mutation on the interaction
F133L | with no effect

Variants of: B4
Details: with mk12_human MAPK12, P53778
Remark: another data set of the same source

Variant | effect of a mutation on the interaction
Y87C | with no effect

Variants of: B5
Details: with rasf8_human RASSF8, Q8NHQ8

Variant | effect of a mutation on the interaction
F102C | with no effect

Variants of: B5
Details: with rasf8_human RASSF8, Q8NHQ8
Remark: another data set of the same source

Variant | effect of a mutation on the interaction
F133V | with no effect

Variants of: B5
Details: with rasf8_human RASSF8, Q8NHQ8
Remark: another data set of the same source

Variant | effect of a mutation on the interaction
F133L | with no effect

Variants of: B5
Details: with rasf8_human RASSF8, Q8NHQ8
Remark: another data set of the same source

Variant | effect of a mutation on the interaction
Y87C | with no effect

Variants of: B6
Details: with nfac1_human NFATC1, O95644

Variant | effect of a mutation on the interaction
F133L | with no effect

Variants of: B6
Details: with nfac1_human NFATC1, O95644
Remark: another data set of the same source

Variant | effect of a mutation on the interaction
F133V | with no effect

Variants of: B6
Details: with nfac1_human NFATC1, O95644
Remark: another data set of the same source

Variant | effect of a mutation on the interaction
F102C | with no effect

Variants of: B6
Details: with nfac1_human NFATC1, O95644
Remark: another data set of the same source

Variant | effect of a mutation on the interaction
Y87C | with no effect

Variants of: B7
Details: with sem4f_human SEMA4F

Variant | effect of a mutation on the interaction
F102C | with no effect
